From paper PMC10569793

Experiments:
[1] = target: complex V (D. melanogaster), monomer (D. melanogaster (endogenous in fly mitochondria)); assay: native gel or EMSA; BN-PAGE (NativePAGE 3-12% Bis-Tris) of wild-type fly mitochondria solubilised with 4 mg digitonin per mg protein; Coomassie stain and in-gel activity of CI and CIV
[2] = target: complex V (D. melanogaster), monomer (D. melanogaster (endogenous in fly mitochondria)); assay: native gel or EMSA; complexome profiling: wild-type fly mitochondria solubilised with 6 g digitonin/g protein (50 mM NaCl, 5 mM 6-aminohexanoic acid, 1 mM EDTA, 50 mM imidazole/HCl pH 7.0), 4-16% gradient BN-PAGE, lane cut into 60 slices, LC-MS/MS, label-free quantification
[3] = target: mitochondrial respiratory chain complex IV (D. melanogaster) (D. melanogaster (endogenous in fly mitochondria)); assay: native gel or EMSA; BN-PAGE (NativePAGE 3-12% Bis-Tris) of wild-type fly mitochondria solubilised with 4 mg digitonin per mg protein; Coomassie stain and in-gel activity of CI and CIV
[4] = target: mitochondrial respiratory chain complex IV (D. melanogaster) (D. melanogaster (endogenous in fly mitochondria)); assay: native gel or EMSA; BN-PAGE (NativePAGE 3-12% Bis-Tris) of mitochondria solubilised with 4 mg DDM per mg protein; Coomassie, in-gel activity, western blot of subunits; wild-type, Coa8 KO, Coa8 RNAi, strong Bcs1 RNAi and Ndufs4 RNAi flies or larvae with their controls

Substance | stoichiometry N [1] | stoichiometry N [2] | stoichiometry N [3] | stoichiometry N [4]
complex V (D. melanogaster), monomer | 2 | 2 | – | –
mitochondrial respiratory chain complex IV (D. melanogaster) | – | – | 2 | 2
